From US20170292963A1 (Johns Hopkins, published 2017)

Molecular target: T1, Human NPTX2 (native protein in human CSF; antigen of the anti-human NPTX2 antibody) (human, UniProt P47972 17-431)
T1 construct: In CSF the protein is disulfide-linked with NPTX1 in heterocomplexes; also called Narp
T1 sequence: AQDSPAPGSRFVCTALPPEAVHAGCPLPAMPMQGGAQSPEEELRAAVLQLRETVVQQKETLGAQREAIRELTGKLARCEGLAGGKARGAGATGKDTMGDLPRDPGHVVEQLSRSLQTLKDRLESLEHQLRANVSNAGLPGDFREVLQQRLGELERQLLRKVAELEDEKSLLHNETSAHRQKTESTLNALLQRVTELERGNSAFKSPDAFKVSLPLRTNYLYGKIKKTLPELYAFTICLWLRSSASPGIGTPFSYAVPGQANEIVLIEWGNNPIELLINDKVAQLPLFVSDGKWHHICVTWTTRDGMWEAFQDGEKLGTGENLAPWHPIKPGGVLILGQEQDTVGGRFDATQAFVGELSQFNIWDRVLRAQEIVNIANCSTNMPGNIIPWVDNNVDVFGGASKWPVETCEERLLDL
Assay: co-immunoprecipitation from human CSF

B1: Human NPTX1 (native protein in human CSF; antigen of the anti-human NPTX1 antibody) (other)
chain: QDFGPTRFICTSVPVDADMCAASVAAGGAEELRSSVLQLRETVLQQKETILSQKETIRELTAKLGRCESQSTLDPGAGEARAGGGRKQPGSGKNTMGDLSRTPAAETLSQLGQTLQSLKTRLENLEQYSRLNSSSQTNSLKDLLQSKIDELERQVLSRVNTLEEGKGGPRNDTEERVKIETALTSLHQRISELEKGQKDNRPGDKFQLTFPLRTNYMYAKVKKSLPEMYAFTVCMWLKSSATPGVGTPFSYAVPGQANELVLIEWGNNPMEILINDKVAKLPFVINDGKWHHICVTWTTRDGVWEAYQDGTQGGSGENLAPYHPIKPQGVLVLGQEQDTLGGGFDATQAFVGELAHFNIWDRKLTPGEVYNLATCSTKALSGNVIAWAESHIEIYGGATKWTFEACRQIN
binding result: binds
